B1: 10-mer-A (M) (dsDNA)
DNA 1: GTCAGTCAGATTGCGCAATATAGGTCAG
DNA 2: CTGACCTATATTGCGCAATCTGACTGAC
modifications: 5mC at position 14 of each strand
B2: Hetero (CGAT|GCAA) unmethylated (dsDNA)
DNA 1: GTCAGTCAGACGATGCAATATAGGTCAG
DNA 2: CTGACCTATATTGCATCGTCTGACTGAC

What was measured:
CEBPB B-ZIP domain = CEBPB B-ZIP domain (mouse, UniProt P28033 222-285); assay: EMSA
[1] = biological target: CEBPB B-ZIP domain;ATF4 B-ZIP domain (mouse;mouse, UniProt P28033;Q06507 222-285;276-339, |); assay: EMSA
CEBPB B-ZIP domain;ATF4 B-ZIP domain, sequence (P28033 222-285, chain 1 of 2): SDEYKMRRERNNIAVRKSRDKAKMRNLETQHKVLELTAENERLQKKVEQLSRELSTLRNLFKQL
CEBPB B-ZIP domain;ATF4 B-ZIP domain, sequence (Q06507 276-339, chain 2 of 2): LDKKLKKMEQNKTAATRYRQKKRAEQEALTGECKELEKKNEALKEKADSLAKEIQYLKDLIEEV

CEBPB B-ZIP domain, sequence (P28033 222-285): as the sequence (P28033 222-285, chain 1 of 2) above

Row | Binder | apparent K (half saturation) (CEBPB B-ZIP domain) [nM] | binding signal [1]
1 | B1 | ~5 | 
2 | B2 |  | 10 fold weaker than methylated N2

— publication PMC3668366
